Assay results published in patent publication US20200392227A1 (LYVGEN BIOPHARMA, published 2020).
Where a chain is given by its changes, count along the chain named.

T1: human FcγRIIA(H131) expressed on CHO cells (human, UniProt P12318 34-317)
T1 construct: whole, on cells
T1 sequence (looked up): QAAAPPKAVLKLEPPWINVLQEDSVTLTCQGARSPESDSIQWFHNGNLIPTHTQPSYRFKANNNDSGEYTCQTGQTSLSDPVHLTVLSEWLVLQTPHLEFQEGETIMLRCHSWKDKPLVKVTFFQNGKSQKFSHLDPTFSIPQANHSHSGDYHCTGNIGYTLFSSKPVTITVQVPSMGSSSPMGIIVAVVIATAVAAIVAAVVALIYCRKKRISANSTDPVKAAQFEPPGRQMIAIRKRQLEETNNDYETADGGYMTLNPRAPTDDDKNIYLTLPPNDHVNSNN

T2: human FcRIIA protein (MednaBio, E1033) (human, UniProt P12318 34-218, limits assumed)
T2 construct: Bought; also called FcγRIIA
T2 sequence (looked up): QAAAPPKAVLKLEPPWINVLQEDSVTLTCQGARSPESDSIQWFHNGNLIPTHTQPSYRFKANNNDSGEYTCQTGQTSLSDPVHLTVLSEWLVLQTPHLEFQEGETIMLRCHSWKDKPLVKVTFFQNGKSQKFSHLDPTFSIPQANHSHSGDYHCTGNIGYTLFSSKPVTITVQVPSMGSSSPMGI

T3: human FcRIIB/C protein (MednaBio, E1034) (human, UniProt P31994 43-217, limits assumed)
T3 construct: Bought as FcRIIB/C; also called FcγRIIB; CD32B
T3 sequence (looked up): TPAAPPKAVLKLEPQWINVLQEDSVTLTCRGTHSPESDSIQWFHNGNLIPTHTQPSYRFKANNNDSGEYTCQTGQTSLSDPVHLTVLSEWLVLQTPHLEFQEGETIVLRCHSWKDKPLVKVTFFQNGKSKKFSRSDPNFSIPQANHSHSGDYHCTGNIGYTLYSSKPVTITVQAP

T4: human FcγRIIB expressed on CHO cells (human, UniProt P31994 43-310)
T4 construct: whole, on cells; also called CD32B
T4 sequence (looked up): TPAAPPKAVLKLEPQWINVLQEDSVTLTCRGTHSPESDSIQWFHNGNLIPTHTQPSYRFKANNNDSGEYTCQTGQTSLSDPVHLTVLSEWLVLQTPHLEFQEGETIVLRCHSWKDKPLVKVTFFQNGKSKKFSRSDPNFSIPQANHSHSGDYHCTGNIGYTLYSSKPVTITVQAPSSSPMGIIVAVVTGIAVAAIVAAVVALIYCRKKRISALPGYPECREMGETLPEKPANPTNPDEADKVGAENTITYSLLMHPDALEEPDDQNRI

T5: human FcγRIIC expressed on CHO cells (human, UniProt P31995 43-323)
T5 construct: whole, on cells
T5 sequence (looked up): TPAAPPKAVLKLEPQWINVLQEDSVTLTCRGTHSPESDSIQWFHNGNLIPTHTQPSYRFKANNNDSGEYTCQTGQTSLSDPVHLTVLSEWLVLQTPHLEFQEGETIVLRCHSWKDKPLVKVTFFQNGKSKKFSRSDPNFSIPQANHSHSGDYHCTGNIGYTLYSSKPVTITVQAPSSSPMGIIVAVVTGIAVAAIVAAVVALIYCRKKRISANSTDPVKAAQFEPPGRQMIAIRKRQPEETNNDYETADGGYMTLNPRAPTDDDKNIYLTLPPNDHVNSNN

T6: human FcγRIIA(R131) expressed on CHO cells (human, UniProt P12318 34-317)
T6 construct: whole, on cells
T6 sequence (looked up): T1 sequence (looked up) with H134R

B1: anti-CD137 IgG1 with Fc variant G1m2 (antibody)
heavy: EVQLVQSGAEVKKPGESLRISCKGSGYSFSTYWISWVRQMPGKGLEWMGKIYPGDSYTNYSPSFQGQVTISADKSISTAYLQWSSLKASDTAMYYCARGYGIFDYWGQGTLVTVSSASTKGPSVFPLAPSSKSTSGGTAALGCLVKDYFPEPVTVSWNSGALTSGVHTFPAVLQSSGLYSLSSVVTVPSSSLGTQTYICNVNHKPSNTKVDKKVEPKSCDKTHTCPPCPAPELLGPSVFLFPPKPKDTLMISRTPEVTCVVVDVSHEDPEVKFNWYVDGVEVHNAKTKPREEQYNSTYRVVSVLTVLHQDWLNGKEYKCKVSNKALPAPIEKTISKAKGQPREPQVYTLPPSREEMTKNQVSLTCLVKGFYPSDIAVEWESNGQPENNYKTTPPVLDSDGSFFLYSKLTVDKSRWQQGNVFSCSVMHEALHNHYTQKSLSLSPGK
light: SYELTQPPSVSVSPGQTASITCSGDNIGDQYAHWYQQKPGQSPVLVIYQDKNRPSGIPERFSGSNSGNTATLTISGTQAMDEADYYCATYTGFGSLAVFGGGTKLTVLGQPKAAPSVTLFPPSSEELQANKATLVCLISDFYPGAVTVAWKADSSPVKAGVETTTPSKQSNNKYAASSYLSLTPEQWKSHRSYSCQVTHEGSTVEKTVAPTECS
notes: copies: 2 + 2
B2: anti-CD137 IgG2 with Fc variant G2m1 (antibody)
heavy: EVQLVQSGAEVKKPGESLRISCKGSGYSFSTYWISWVRQMPGKGLEWMGKIYPGDSYTNYSPSFQGQVTISADKSISTAYLQWSSLKASDTAMYYCARGYGIFDYWGQGTLVTVSSASTKGPSVFPLAPCSRSTSESTAALGCLVKDYFPEPVTVSWNSGALTSGVHTFPAVLQSSGLYSLSSVVTVPSSNFGTQTYTCNVDHKPSNTKVDKTVERKCCVECPPCPAPPVASVFLFPPKPKDTLMISRTPEVTCVVVDVSHEDPEVQFNWYVDGVEVHNAKTKPREEQFNSTFRVVSVLTVVHQDWLNGKEYKCKVSNKGLPAPIEKTISKTKGQPREPQVYTLPPSREEMTKNQVSLTCLVKGFYPSDIAVEWESNGQPENNYKTTPPMLDSDGSFFLYSKLTVDKSRWQQGNVFSCSVMHEALHNHYTQKSLSLSPGK
light: B1 light
notes: copies: 2 + 2

Legend:
[1] = target: T1, human FcγRIIA(H131) expressed on CHO …; test: FACS, CHO cells expressing FcγRIIA(H131)
Description: (§1) For FACS analysis of the IgG mutants' binding to different FcγRs, FcγR overexpressing CHO cells were harvested using trypsin-EDTA and were suspended in cold staining buffer (3% BSA in PBS). Test IgG mutants, which were diluted in staining buffer, were added into the cells. The mixture was incubated 4° C. for 2 hours, and then washed twice with cold staining buffer and re-suspended in PE-labeled anti-human IgG followed by incubation at 4° C. for 2 hours. The mixture was washed twice with staining buffer and re-suspended in 2% PFA in PBS for FACS.

[2] = target: T7, human FcRIIIA-F158 protein (MednaBio, E1036) (human, UniProt P08637 17-208); test: BLI
T7 construct: Bought; also called FcγRIIIA(F)
T7 sequence (P08637 17-208 limits assumed): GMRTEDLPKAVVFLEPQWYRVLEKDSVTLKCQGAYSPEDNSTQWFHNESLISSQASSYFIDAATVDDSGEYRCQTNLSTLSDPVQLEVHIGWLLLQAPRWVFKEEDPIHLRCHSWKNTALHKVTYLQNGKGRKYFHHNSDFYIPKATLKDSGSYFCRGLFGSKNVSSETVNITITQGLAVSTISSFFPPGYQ
Description: (§2) These IgG mutants were tested for binding to a panel of human Fc receptors (FcRs), including FcRn, using the Octet Red96 System (ForteBio, Model #Red96). Human FcR proteins were purchased commercially (FcRn, MednaBio, E1032; FcRI, MednaBio, E1031; FcRIIA, MednaBio, E1033; FcRIIB/C, MednaBio, E1034; FcRIIIA-F158, MednaBio, E1036; FcRIIIA-V158, MednaBio, E1035; FcRIIIB, MednaBio, E1037). All Fey receptor assays were performed at pH 7.2; all FcRn assays were performed at pH 6. The Fey receptors were loaded onto anti-penta-HIS1K (ForteBio, Cat #18-5122) biosensors at a concentration of 20 μg/mL. The loaded biosensors was then be dipped into an 8-point 1:3 dilution series of the test IgG molecules (including controls and the mutants described herein) in PBS with 0.1% BSA, 0.02% Tween-20 (pH 7.2) at a starting concentration of 300 nM. Kinetic analysis was performed using a 1:1 binding model and global fitting.

[3] = target: T2, human FcRIIA protein (MednaBio, E1033); test: BLI
Description: as §2

[4] = target: T3, human FcRIIB/C protein (MednaBio, E1034); test: BLI
Description: as §2

[5] = target: T8, human FcRn protein (MednaBio, E1032) (human, UniProt P55899 24-297; P61769 21-119); test: BLI
T8 construct: Bought; assays at pH 6
T8 sequence (P55899 24-297 limits assumed, form in doubt, chain 1 of 2): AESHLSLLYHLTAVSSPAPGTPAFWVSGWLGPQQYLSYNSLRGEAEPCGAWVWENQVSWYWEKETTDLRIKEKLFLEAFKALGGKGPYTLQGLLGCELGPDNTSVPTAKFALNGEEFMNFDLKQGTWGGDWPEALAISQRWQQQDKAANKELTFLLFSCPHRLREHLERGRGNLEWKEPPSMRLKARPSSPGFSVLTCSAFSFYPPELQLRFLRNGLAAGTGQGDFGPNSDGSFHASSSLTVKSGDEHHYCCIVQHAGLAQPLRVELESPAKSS
T8 sequence (P61769 21-119 limits assumed, form in doubt, chain 2 of 2): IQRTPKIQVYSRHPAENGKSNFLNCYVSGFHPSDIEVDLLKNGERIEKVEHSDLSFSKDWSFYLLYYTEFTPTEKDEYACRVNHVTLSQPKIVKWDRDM
Description: as §2

[6] = target: T9, human FcRIIIA-V158 protein (MednaBio, E1035) (human, UniProt P08637 17-208); test: BLI
T9 construct: Bought; also called FcγRIIIA(V); FcgRIIIA(V)
T9 sequence (P08637 17-208 F176V): as the sequence (P08637 17-208 limits assumed) above, with F160V counted along it
Description: as §2

[7] = target: T10, human FcRIIIB protein (MednaBio, E1037) (human, UniProt O75015 17-200); test: BLI
T10 construct: Bought; also called FcγRIIIB; FcgRIIIB
T10 sequence (O75015 17-200 limits assumed): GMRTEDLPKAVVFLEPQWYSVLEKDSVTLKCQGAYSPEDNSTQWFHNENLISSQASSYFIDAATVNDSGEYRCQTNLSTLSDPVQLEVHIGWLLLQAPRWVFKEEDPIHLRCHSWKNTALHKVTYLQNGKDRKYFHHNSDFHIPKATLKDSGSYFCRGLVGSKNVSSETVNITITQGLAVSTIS
Description: as §2

[8] = target: T11, human FcRI protein (MednaBio, E1031) (human, UniProt P12314 16-288, limits assumed); test: BLI
T11 construct: Bought; loaded on anti-penta-HIS biosensors; also called FcγRI
T11 sequence (P12314 16-288 limits assumed): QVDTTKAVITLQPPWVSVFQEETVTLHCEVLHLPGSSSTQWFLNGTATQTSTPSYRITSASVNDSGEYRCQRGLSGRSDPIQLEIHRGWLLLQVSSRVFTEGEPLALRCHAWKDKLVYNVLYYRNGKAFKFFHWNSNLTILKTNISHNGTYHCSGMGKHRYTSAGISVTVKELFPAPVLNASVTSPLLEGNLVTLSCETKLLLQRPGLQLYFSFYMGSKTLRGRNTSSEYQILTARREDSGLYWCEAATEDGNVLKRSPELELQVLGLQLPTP
Description: as §2

[9] = target: T4, human FcγRIIB expressed on CHO cells; test: FACS, CHO cells expressing FcγRIIB
Description: as §1

[10] = target: T5, human FcγRIIC expressed on CHO cells; test: FACS, CHO cells expressing FcγRIIC
[11] = target: T12, human FcγRI expressed on CHO cells (human, UniProt P12314 16-374); test: FACS, CHO cells expressing FcγRI
T12 construct: whole, on cells
T12 sequence (P12314 16-374): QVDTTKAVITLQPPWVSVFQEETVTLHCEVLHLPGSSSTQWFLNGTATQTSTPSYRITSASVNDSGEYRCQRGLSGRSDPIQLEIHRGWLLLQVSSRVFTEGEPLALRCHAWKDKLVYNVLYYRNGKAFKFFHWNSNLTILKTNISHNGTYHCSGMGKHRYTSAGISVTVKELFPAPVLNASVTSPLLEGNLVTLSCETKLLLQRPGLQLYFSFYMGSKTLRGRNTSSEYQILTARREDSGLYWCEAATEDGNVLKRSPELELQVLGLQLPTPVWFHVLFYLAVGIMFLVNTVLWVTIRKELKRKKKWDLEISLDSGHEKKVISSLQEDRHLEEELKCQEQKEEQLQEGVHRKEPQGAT
Outline: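 Trypsin-harvested CHO cells overexpressing each FcγR were incubated 2 h at 4 °C with IgG mutants in 3% BSA/PBS. Bound IgG was detected with PE-labeled anti-human IgG (2 h, 4 °C), then cells were fixed in 2% PFA and analysed by flow cytometry.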

[12] = target: T6, human FcγRIIA(R131) expressed on CHO …; test: FACS, CHO cells expressing FcγRIIA(R131)

Binder	binding result [1]	binding result [2]	binding result [3]	binding result [4]	Kd [5]	koff [5]	kon [5]	binding result [6]	binding result [7]	binding result [8]	binding result [9]	binding result [10]	binding result [11]	binding result [12]
B1	no binding (tested: 10 ug/ml)	no binding (tested: 300 nM)	no binding (tested: 300 nM)	no binding (tested: 300 nM)	13 nM	0.0093 s⁻¹	710000 M⁻¹ s⁻¹	no binding (tested: 300 nM)	no binding (tested: 300 nM)	no binding (tested: 300 nM)	no binding (tested: 10 ug/ml)	no binding (tested: 10 ug/ml)		
B2	no binding (tested: 10 ug/ml)	no binding (tested: 300 nM)	no binding (tested: 300 nM)	no binding (tested: 300 nM)	5.5 nM	0.00096 s⁻¹	170000 M⁻¹ s⁻¹	no binding (tested: 300 nM)		no binding (tested: 300 nM)	no binding (tested: 10 ug/ml)	no binding (tested: 10 ug/ml)	no binding (tested: 10 ug/ml)	no binding (tested: 10 ug/ml)
